These are literature values, as cited in article PMC7228847.

The series deals with SEMA6A ECD (Mus musculus) (UniProt O35464).
SEMA6A ECD (Mus musculus), sequence (O35464 19-649): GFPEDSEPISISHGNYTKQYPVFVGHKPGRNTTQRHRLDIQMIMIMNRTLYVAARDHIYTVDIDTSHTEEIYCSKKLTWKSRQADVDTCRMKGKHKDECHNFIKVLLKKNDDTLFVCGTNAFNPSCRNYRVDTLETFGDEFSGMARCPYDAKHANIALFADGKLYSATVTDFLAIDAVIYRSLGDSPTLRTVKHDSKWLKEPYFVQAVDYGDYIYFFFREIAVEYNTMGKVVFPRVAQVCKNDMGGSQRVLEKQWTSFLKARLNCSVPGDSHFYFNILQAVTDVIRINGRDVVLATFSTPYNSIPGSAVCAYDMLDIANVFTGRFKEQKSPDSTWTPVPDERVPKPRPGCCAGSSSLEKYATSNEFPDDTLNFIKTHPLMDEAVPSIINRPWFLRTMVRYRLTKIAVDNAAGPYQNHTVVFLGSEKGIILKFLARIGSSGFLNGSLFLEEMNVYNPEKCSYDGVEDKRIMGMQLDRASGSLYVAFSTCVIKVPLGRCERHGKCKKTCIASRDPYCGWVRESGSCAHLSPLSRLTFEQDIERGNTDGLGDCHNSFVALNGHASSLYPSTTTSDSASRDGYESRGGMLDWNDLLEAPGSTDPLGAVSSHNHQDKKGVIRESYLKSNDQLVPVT

PlexinA2, sequence (P70207 35-1237): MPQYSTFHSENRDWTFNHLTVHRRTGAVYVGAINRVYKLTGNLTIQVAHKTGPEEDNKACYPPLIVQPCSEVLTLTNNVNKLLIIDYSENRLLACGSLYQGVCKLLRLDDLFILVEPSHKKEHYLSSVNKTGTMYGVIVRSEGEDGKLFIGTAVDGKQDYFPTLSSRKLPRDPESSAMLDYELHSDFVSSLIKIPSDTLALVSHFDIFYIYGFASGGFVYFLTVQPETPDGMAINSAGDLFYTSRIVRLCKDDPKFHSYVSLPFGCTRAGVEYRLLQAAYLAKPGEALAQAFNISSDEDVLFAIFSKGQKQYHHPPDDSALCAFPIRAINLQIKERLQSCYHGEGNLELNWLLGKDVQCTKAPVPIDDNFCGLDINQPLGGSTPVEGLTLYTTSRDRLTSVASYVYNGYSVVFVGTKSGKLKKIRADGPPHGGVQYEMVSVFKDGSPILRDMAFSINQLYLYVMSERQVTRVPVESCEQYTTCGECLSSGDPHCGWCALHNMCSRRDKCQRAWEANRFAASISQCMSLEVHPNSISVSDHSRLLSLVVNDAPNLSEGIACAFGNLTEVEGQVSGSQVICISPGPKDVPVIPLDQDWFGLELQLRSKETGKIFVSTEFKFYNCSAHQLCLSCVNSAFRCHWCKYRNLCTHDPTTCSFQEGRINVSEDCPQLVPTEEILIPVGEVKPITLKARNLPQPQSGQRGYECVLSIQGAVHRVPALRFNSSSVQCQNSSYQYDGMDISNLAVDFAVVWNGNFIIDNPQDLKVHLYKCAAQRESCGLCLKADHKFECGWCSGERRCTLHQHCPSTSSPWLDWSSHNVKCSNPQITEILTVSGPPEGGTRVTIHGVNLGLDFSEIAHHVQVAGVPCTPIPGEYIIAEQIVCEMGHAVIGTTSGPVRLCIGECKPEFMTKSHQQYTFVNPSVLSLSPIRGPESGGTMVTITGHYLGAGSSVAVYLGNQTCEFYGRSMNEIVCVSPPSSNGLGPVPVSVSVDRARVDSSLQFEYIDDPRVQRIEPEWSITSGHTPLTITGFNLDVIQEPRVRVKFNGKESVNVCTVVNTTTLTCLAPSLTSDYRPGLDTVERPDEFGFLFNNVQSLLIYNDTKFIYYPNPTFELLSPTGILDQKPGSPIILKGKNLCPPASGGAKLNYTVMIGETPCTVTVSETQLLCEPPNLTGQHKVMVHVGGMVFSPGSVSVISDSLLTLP

Turning to PlexinA2 (from UniProt P70207), the equilibrium dissociation constant (Kd) – broadly, the constant that tells how readily two partners part at equilibrium – was 2300 nM.
